Measurements reported in the nanobody polyreactivity screen of Harvey et al. (2022).

Test: yeast display, Sf9 membrane polyspecificity reagent, FACS + sequencing; frameworks hold sequencing errors
How it was run: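 A nanobody's polyreactivity label depends on the gate it was sorted from. Yeast display cells were stained with 10% biotinylated, detergent-solubilized Sf9 membrane reagent for 1 hour at 4 °C, enriched on streptavidin microbeads and sorted by FACS. The low and high (top ~1%) gates were set on anti-HA fluorescence for expression and streptavidin fluorescence for reagent binding.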

Sequence | polyreactivity (PSR sort gate)
QVQLVESGGGLVQAGGSLRLSCAASGFTFHSYAMGWYIQAPGKERELVAAISARGGSTYYADSVKGRFTISRDNAKNTVYLQMNSLKPEDTAVYYCAAYSYQVRFYYWGHGTQVTVSS | high polyreactivity
QVQLVESGGGLVQAGGSLRLSCAASGFTFHSYAMGWYRQAPGKERELVAAISYSGGSTYYADSVKGRFTISRDNAKNTVYLQMHSLKPEDTAVYYCAGLRYIYGYANDYWGQGTQVTVSS | low polyreactivity
QVQLVESGGGLVQAGGSLRLSCAASGFTFHYYAMGRYRQAPGKERELVAAISWDTGSTYYADSVKGRFTISRDNAKNTVYLQMNSLKPEDTAVYYCNAQFYWYHGEWVFYGLSDDFDYWGQGTQVTVSS | high polyreactivity
QVQLVESGGGLVQAGGSLRLSCAASGFTFHYYTMAWYRQAPGKEREFVAAMSKSGGRTYYADSVKGRFTISRDKAKNTVYLQMNSLKPEDTAVYYCSTVGYWRNRHDYWGQGTQVTVSS | high polyreactivity
QVQLVESGGGLVQAGGSLRLSCAASGFTFHYYVMGWYRQAPGKERELVAAINAGGVSTYYADSVKGRFTISRDNAKNTVYLQMNSLKPEDTAVYYCNARVRVRLGRNWSSYYYWGQGTQVTVSS | high polyreactivity
QVQLVESGGGLVQAGGSLRLSCAASGFTFIDYTMGWYRQAPGKERELVARITDTGSTNYADSVKGRFTISRDNAKNTVYLQMNRLKPEDTAVYYCNKDDRNDRTIPGYDPEYDYWGQGTQVTVSS | low polyreactivity
QVQLVESGGGLVQAGGSLRLSCAASGFTFIRNAMGWYRQAPGKERELVAVITRSGGSTYYADSVKGRFTISRDNAKNTVYLQMNSLKPQDTAVYYCAATLRYSPRRRYDYWGQGTQVTVSS | high polyreactivity
QVQLVESGGGLVQAGGSLRLSCAASGFTFIRYAMGWYIQAPGKERELVASISNRGGRTYYADSVKGRFTISRDNAKNTFYLQMNSLKPEDTAVYYCAAKFSSYWSRFGYWGQGTQVTVSS | high polyreactivity
QVQLVESGGGLVQAGGSLRLSCAASGFTFIRYAMGWYRQAPGKEREFVAAISWRVGITYYADSVKGRFTMSRDNAKNTVYLQMNSLKPEDTAVYYCARDYRNPPFAYEYWGQGTQVTVSS | low polyreactivity
QVQLVESGGGLVQAGGSLRLSCAASGFTFIRYAMGWYRQAPGKERELVATITRSGGSTYYADSVKGRFTISRDNAKNTVYLQMNSLKPEDTAVYYCAKRGTLGSYYYWGQGTQVTVSS | high polyreactivity
QVQLVESGGGLVQAGGSLRLSCAASGFTFITNAMGLYRQAPGKERELVASISIGGSTNYADSVKGRFTISRDNAKNTVYLQMNSLKPEDTAVYYCAARVYRRLFLPGRYGRPLGYWGQGTQVTVSS | high polyreactivity
QVQLVESGGGLVQAGGSLRLSCAASGFTFIYYAMGWYRQAPGKERELVAAISASGGSTYYADSVKGRFTISRDNSKNTVYLQMNSLKPEDTAVYYCDAYRVWYRGYPMGYWGQGTQVTVSS | high polyreactivity
QVQLVESGGGLVQAGGSLRLSCAASGFTFKDNTMGWYRQAPGKEGELVAAISSRGGSTYYADSVKGRFTISRDTAKNTVYLQMNSLKPEDTAVYYCAARSHSSRSRSPGDYWGQGTQVTVSS | high polyreactivity
QVQLVESGGGLVQAGGSLRLSCAASGFTFKFNTMGWYRQAPGKERELVAAISWRGGDTSYADSVKGRFTISRDNAKNNVYLQMNSLKPEDTAVYYCAASPRYPYWYDYWGQGTQVTVSS | low polyreactivity
QVQLVESGGGLVQAGGSLRLSCAASGFTFKGYAMGWYRQAPGKERELVAAITRGGSTYYADSVKGRFTISRDNAKNTVYLQMNSLKPEDTAVYYCAARGRGHGTTPNDYWGQGTQVTVSS | high polyreactivity
QVQLVESGGGLVQAGGSLRLSCAASGFTFKHYTMGWYRQAPGKERELVAAISYSGGSTYYADSVKGRFTISRDNAKNTVYLQMNSLKPEDTAVYYCAADAVKASVSYIVPYAAYDYWGQGTQVTVSS | low polyreactivity

Sequence | polyreactivity (PSR sort gate)
QVQLVESGGGLVQAGGSLRLSCAASGFTFKINGKGWYRQAPGKEREFVATIRTSTGRTYYADSVKGRFTISRDNAKNTVYLQMNSLKPEDTAVYYCATDYLFERLLQEMDYWGQGTQVTVSS | high polyreactivity
QVQLVESGGGLVQAGGSLRLSCAASGFTFKKYAMGWYRQAPGKERELVASITWSGGSTSYADSVKGRFTISRDNAKNTVYLQMNSRKPEDTAVYYCDAATFVYRLRYNRFDYWGQGTQVTVSS | high polyreactivity
QVQLVESGGGLVQAGGSLRLSCAASGFTFKRNAMGWYRQAPGKERELVAAITKSGGSTYYADSVKGRFTISRDNAKNTVYLQMNSLQPEDTAVYYCNTVHYYRDYDYWGQGTQVTVSS | high polyreactivity
QVQLVESGGGLVQAGGSLRLSCAASGFTFKRYAMGWYRQAPGKEREFVAAITRGGGSTYYTDSVKGRFTISRDNAKNTVYLQMNSLKPEYTAVYYCAAVLYYYWRGYGPRSNRYDYWGQGTQVTVSS | high polyreactivity
QVQLVESGGGLVQAGGSLRLSCAASGFTFKRYAMGWYRQAPGKERELVAAISWSGGSTYYADSVKGRFTISRDNAKNTVYLQMNSLKPEDTAVYYCNAVCRFSTRREYWGQGTQVTVSS | high polyreactivity
QVQLVESGGGLVQAGGSLRLSCAASGFTFKSYAMGWYRQAPGKERELVAGISRNGGRTYYADSVKGRFTISRDNAKNTVYLQMNSLKPEDTAVYYCAARIYTSRDNYWGQGTQVTVSS | high polyreactivity
QVQLVESGGGLVQAGGSLRLSCAASGFTFKSYTMGSYRQAPGKERELVAAISRRDGSTYYADSVKGRFTISRDNAKNTVYLQMNSLKPEDTAVYYCAKVWYGDRNIDRYDYWGQGTQVTVSS | high polyreactivity
QVQLVESGGGLVQAGGSLRLSCAASGFTFKYYAMGWYRQAPGKERELVAAISSGATTYYADSVKGRFTISRDNAKNTVYLQMNSLKPEDTAVYYCNANRFRRYDWGQGTLVTVSS | high polyreactivity
QVQLVESGGGLVQAGGSLRLSCAASGFTFKYYAMGWYRQAPGKERELVADITRSGGSTYYADSVKGRFTISRDTAKITVYLQMNSLKPEDTAVYYCAVDPVRYPYSYDYWGQGTQVTVSS | high polyreactivity
QVQLVESGGGLVQAGGSLRLSCAASGFTFKYYAMGWYRQAPRKERELVAAITSRGGSTYYADSVKGRFTISRDNAKNTVYLQMNSLKPEDTAVYYCAARFRKIGVAFDYWGQGTQVTVSS | high polyreactivity
QVQLVESGGGLVQAGGSLRLSCAASGFTFKYYDMGWYRQAPGKERELVAAIDTSGGNTYYADSVKGRFTISRDNAKNTVYLQMNSLKPEDTAVYYCAATVPYYHDDYWGQGTQVTVSS | low polyreactivity
QVQLVESGGGLVQAGGSLRLSCAASGFTFKYYVMGSYRQAPGKERFVAAITGSGASTYYADSVKGRFTISRDNAKNTVFLQMNSLKPEETAVYYCNADYYAGRYRYDYWGQGTQVTVSS | high polyreactivity
QVQLVESGGGLVQAGGSLRLSCAASGFTFLAYAMGWYRQAPGQERELVAAINSSDGTTHYADSVKGRFTISRDTAKNTVYLQMNSLKPEDTAVYYCAVSQVRTGEGYHYWGQGTQVTVSS | low polyreactivity
QVQLVESGGGLVQAGGSLRLSCAASGFTFLRYAMGWYRQAPGKERELVAAISTSGGRTYYADSVKGRFTISRDNAKNTVYLQMNSLKPEDTAVYYCNAAGGYRTSPSDYWGQGTQVTVSS | high polyreactivity
QVQLVESGGGLVQAGGSLRLSCAASGFTFLSNAMGWYRQAPVKERELVAGISWDAGSTNYADSVKGRVTISRDNAKNTVYLQMNSLKPEDTAVYYCNADDSTGSRFYIEYDYWGQGTQVTVSS | low polyreactivity
